Test results from patent US20090232794A1 (published 2009).

Columns and labels:
[1] = molecular target: T1, purified human C1q protein (human, UniProt P02745 23-245; P02746 28-253; P02747 29-245); test: purified human C1q on transfected COS7 cells, anti-C1q-FITC immunofluorescence
Method: COS7 cells were transfected with cDNA's encoding full-length NgR or PirB. […] Cells were washed four times with Hank's Buffered Saline Solution (HBSS), fixed for five minutes with 2% paraformaldehyde, washed four times with HBSS, and blocked for 15 minutes with 10% heat-inactivated goat serum (RIGS) in HBSS. […] Immunofluorescence was detected using a Zeiss Axioskop fluorescence microscope.

[2] = molecular target: T1, purified human C1q protein; test: purified human C1q on transfected cells, anti-C1q-FITC immunofluorescence

T1 sequence (P02745 23-245, chain 1 of 3): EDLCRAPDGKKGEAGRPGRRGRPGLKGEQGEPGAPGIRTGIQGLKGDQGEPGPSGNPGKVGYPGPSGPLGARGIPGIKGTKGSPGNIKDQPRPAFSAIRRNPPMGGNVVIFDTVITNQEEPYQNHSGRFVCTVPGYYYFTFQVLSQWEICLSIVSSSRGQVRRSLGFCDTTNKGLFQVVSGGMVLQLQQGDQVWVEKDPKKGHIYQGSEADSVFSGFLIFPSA
T1 sequence (P02746 28-253, chain 2 of 3): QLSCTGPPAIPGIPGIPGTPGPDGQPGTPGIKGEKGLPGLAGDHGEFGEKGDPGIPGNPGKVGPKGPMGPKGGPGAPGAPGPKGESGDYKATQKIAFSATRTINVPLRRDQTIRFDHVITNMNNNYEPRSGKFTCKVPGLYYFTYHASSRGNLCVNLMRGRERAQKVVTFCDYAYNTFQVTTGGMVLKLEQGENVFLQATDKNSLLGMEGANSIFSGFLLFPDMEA
T1 sequence (P02747 29-245, chain 3 of 3): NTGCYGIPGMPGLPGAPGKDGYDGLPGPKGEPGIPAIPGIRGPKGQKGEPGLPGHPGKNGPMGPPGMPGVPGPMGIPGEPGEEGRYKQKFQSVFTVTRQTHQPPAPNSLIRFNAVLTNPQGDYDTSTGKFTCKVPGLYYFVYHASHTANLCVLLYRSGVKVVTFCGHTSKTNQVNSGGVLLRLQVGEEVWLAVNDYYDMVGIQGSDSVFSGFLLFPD

Row | Binder | binding result [1] | binding result [2]
1 | PirB (paired-immunoglobulin-like receptor B), full-length, expressed on transfected COS7 cells (receptor, COS7 cells were transfected with cDNA encoding full-length PirB; In the antibody outgrowth assays the target is the PirB of mouse neurons) SLPKPILRVQPDSVVSRWTKVTFFCEETIGANEYRLYKDGKLYKTVTKNKQKPANKAEFSLSNVDLRNAGQYRCSYSTQYKSSGYSDPLELVVTGDYWTPSLLAQASPVVTSGGYVTLQCESWHNDHKFILTVEGPQKLSWTQDSQYNYSTRKYHALFSVGPVTPNQRWICRCYSYDRNRPYVWSPPSESVELLVSGNLQKPTIKAEPGPVIASKRAMTIWCQGNLDAEVYFLHNEGSQKTQSTQTLQQPGNKGKFFIPSMTRQHAGQYRCYCYGSAGWSQPSDTLELVVTGIYEHYKPRLSVLPSPVVTAGGNMTLHCASDFHYDKFILTKEDKKFGNSLDTEHISSSRQYRALFIIGPTTPTHTGTFRCYGYFKNAPQLWSVPSDLQQILISGLSKKPSLLTHQGHILDPGMTLTLQCYSDINYDRFALHKVGGADIMQHSSQQTDTGFSVANFTLGYVSSSTGGQYRCYGAHNLSSEWSASSEPLDILITGQLPLTPSLSVKPNHTVHSGETVSLLCWSMDSVDTFILSKEGSAQQPLRLKSKSHDQQSQAEFSMSAVTSHLSGTYRCYGAQNSSFYLLSSASAPVELTVSGPIETSTPPPTMSMPLGGLHMYLKALIGVSVAFILFLFILIFILLRRRHRGKFRKDVQKEKDLQLSSGAEEPITRKGELQKRPNPAAATQEESLYASVEDMQTEDGVELNSWTPPEEDPQGETYAQVKPSRLRKAGHVSPSVMSREQLNTEYEQAEEGQGANNQAAESGESQDVTYAQLCSRTLRQGAAASPLSQAGEAPEEPSVYATLAAARPEAVPKDVEQ | binds | 
2 | LILRB2, expressed on transfected COS7 cells (receptor, also called ILT4; LIR2) QTGTIPKPTLWAEPDSVITQGSPVTLSCQGSLEAQEYRLYREKKSASWITRIRPELVKNGQFHIPSITWEHTGRYGCQYYSRARWSELSDPLVLVMTGAYPKPTLSAQPSPVVTSGGRVTLQCESQVAFGGFILCKEGEDEHPQCLNSQPHARGSSRAIFSVGPVSPNRRWSHRCYGYDLNSPYVWSSPSDLLELLVPGVSKKPSLSVQPGPVVAPGESLTLQCVSDVGYDRFVLYKEGERDLRQLPGRQPQAGLSQANFTLGPVSRSYGGQYRCYGAYNLSSEWSAPSDPLDILITGQIHGTPFISVQPGPTVASGENVTLLCQSWRQFHTFLLTKAGAADAPLRLRSIHEYPKYQAEFPMSPVTSAHAGTYRCYGSLNSDPYLLSHPSEPLELVVSGPSMGSSPPPTGPISTPAGPEDQPLTPTGSDPQSGLGRHLGVVIGILVAVVLLLLLLLLLFLILRHRRQGKHWTSTQRKADFQHPAGAVGPEPTDRGLQWRSSPAADAQEENLYAAVKDTQPEDGVEMDTRAAASEAPQDVTYAQLHSLTLRRKATEPPPSQEREPPAEPSIYATLAIH |  | binds
